As usually defined, the Kd is the constant that tells how readily two partners part at equilibrium. As a reminder, the koff is a measure of how fast the partners let go of each other. High values mean a short-lived complex, low ones a long-lived complex. In general, kon refers to the second-order rate constant of association. A low value points to slower complex formation.

To fix the notation:
B1: A26.8 VHH, wild-type (canonical Cys23-Cys104 disulfide linkage only) (VHH)
VHH: QVKLEESGGGLVQAGGSLRLSCAASERTFSRYPVAWFRQAPGAEREFVAVISSTGTSTYYADSVKGRFTISRDNAKVTVYLQMNNLKREDTAVYFCAVNSQRTRLQDPNEYDYWGQGTQVTVSS
B2: A26.8 VHH with engineered Cys24-Cys86 disulfide linkage (VHH)
VHH: QVKLEESGGGLVQAGGSLRLSCCASERTFSRYPVAWFRQAPGAEREFVAVISSTGTSTYYADSVKGRFTISRDNAKVCVYLQMNNLKREDTAVYFCAVNSQRTRLQDPNEYDYWGQGTQVTVSS
B3: A26.8 VHH with engineered Cys4-Cys25 disulfide linkage (VHH)
VHH: QVKCEESGGGLVQAGGSLRLSCACSERTFSRYPVAWFRQAPGAEREFVAVISSTGTSTYYADSVKGRFTISRDNAKVTVYLQMNNLKREDTAVYFCAVNSQRTRLQDPNEYDYWGQGTQVTVSS
B4: A26.8 VHH with engineered Cys4-Cys118 pair (VHH)
VHH: QVKCEESGGGLVQAGGSLRLSCAASERTFSRYPVAWFRQAPGAEREFVAVISSTGTSTYYADSVKGRFTISRDNAKVTVYLQMNNLKREDTAVYFCAVNSQRTRLQDPNEYDYCGQGTQVTVSS
B5: A26.8 VHH with engineered Cys6-Cys119 disulfide linkage (VHH)
VHH: QVKLECSGGGLVQAGGSLRLSCAASERTFSRYPVAWFRQAPGAEREFVAVISSTGTSTYYADSVKGRFTISRDNAKVTVYLQMNNLKREDTAVYFCAVNSQRTRLQDPNEYDYWCQGTQVTVSS
B6: A26.8 VHH with engineered Cys22-Cys88 disulfide linkage (VHH)
VHH: QVKLEESGGGLVQAGGSLRLCCAASERTFSRYPVAWFRQAPGAEREFVAVISSTGTSTYYADSVKGRFTISRDNAKVTVCLQMNNLKREDTAVYFCAVNSQRTRLQDPNEYDYWGQGTQVTVSS

The target of the test is Clostridioides difficile toxin A (Clostridioides difficile, strain not …, UniProt P16154). In words: SPR. The settings on record: both partners purified.
B1 yielded a Kd of 16.5 nM, a koff of 0.0259 s⁻¹ and a kon of 1.57e+06 M⁻¹ s⁻¹.

Consider B2, for which the equilibrium dissociation constant (Kd) came to 43.6 nM, the koff amounted to 0.0271 s⁻¹ and the kon was 621000 M⁻¹ s⁻¹.

Molecule B3 came in with a dissociation constant Kd of 12.6 nM, a koff of 0.062 s⁻¹ and an association rate constant (kon) of 4.93e+06 M⁻¹ s⁻¹.

B4 showed a dissociation constant Kd of 43.4 nM.

With B5, binding was put at a Kd of 12.6 nM, the koff came to 0.0691 s⁻¹ and the kon stood at 5.5e+06 M⁻¹ s⁻¹.

In turn, B6 returned a Kd of 18.7 nM, a koff of 0.028 s⁻¹ and an association rate constant (kon) of 1.5e+06 M⁻¹ s⁻¹.

The record behind these values is paper PMC10641266, “Sequence tolerance of immunoglobulin variable domain framework regions to noncanonical intradomain disulfide linkages” (The Journal of Biological Chemistry, 2023).
